Results taken from PMC12905440, “Biochemical principles of miRNA targeting in flies”.

Assays:
[1] = biological target: T1, Ago1 (RISC, embryo lysate) (Drosophila w[*]; AGO2[414] embryos, 0-8 …, UniProt A1Z9J5 1-950); experiment: competition; let-7 guide; nearly same affinity as fully complementary; RBNS: 20 mM HEPES-KOH pH 7.9, 100 mM KOAc, 3.5 mM Mg(OAc)2, 0.05% CHAPS, 2 mM DTT, 8% glycerol, BSA, tRNA, 25 C, 2 h; filter binding: 25 mM HEPES-KOH pH 7.9, 110 mM KOAc, 3.5 mM Mg(OAc)2, 2 mM DTT, 25 C; competition: 18 mM HEPES-KOH pH 7.4, 100 mM KOAc, 3 mM Mg(OAc)2, 5 mM DTT, 25 C; settings: protein: native; g2-21 paired, G:U at g4
T1 sequence (A1Z9J5 entry or part of it): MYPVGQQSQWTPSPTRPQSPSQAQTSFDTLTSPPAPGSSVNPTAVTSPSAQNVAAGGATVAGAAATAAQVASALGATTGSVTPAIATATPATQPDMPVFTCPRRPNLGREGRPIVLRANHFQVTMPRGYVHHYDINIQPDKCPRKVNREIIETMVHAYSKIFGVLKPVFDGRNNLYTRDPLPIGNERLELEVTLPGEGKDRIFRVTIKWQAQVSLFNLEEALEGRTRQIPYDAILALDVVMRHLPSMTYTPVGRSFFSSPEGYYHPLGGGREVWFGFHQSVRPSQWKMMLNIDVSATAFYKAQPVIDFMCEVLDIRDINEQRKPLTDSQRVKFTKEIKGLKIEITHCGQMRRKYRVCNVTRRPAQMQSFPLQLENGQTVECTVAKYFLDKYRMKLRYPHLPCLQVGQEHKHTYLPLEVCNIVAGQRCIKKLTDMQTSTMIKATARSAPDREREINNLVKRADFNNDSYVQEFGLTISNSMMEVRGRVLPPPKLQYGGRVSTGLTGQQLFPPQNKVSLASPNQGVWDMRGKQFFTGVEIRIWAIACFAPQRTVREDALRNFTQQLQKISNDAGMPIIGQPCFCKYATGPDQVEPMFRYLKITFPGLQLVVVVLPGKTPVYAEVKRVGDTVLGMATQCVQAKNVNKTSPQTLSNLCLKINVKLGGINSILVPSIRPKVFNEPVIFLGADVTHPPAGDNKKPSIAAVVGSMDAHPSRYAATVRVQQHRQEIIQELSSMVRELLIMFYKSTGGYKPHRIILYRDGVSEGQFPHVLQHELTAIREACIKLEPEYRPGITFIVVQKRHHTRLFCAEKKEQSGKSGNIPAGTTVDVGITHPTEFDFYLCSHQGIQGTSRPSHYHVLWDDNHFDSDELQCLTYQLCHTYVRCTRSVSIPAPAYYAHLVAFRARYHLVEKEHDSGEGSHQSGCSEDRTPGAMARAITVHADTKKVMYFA

[2] = biological target: T1, Ago1 (RISC, embryo lysate); experiment: competition; let-7 guide; reference; RBNS: 20 mM HEPES-KOH pH 7.9, 100 mM KOAc, 3.5 mM Mg(OAc)2, 0.05% CHAPS, 2 mM DTT, 8% glycerol, BSA, tRNA, 25 C, 2 h; filter binding: 25 mM HEPES-KOH pH 7.9, 110 mM KOAc, 3.5 mM Mg(OAc)2, 2 mM DTT, 25 C; competition: 18 mM HEPES-KOH pH 7.4, 100 mM KOAc, 3 mM Mg(OAc)2, 5 mM DTT, 25 C; settings: protein: native; g2-21 paired
FLAG-Ago1 (RISC) [3] = biological target: T2, FLAG-Ago1 (RISC) (Drosophila melanogaster, UniProt A1Z9J5 1-950); experiment: RNA Bind-n-Seq (filter binding, sequencing, MLE); miR-11 guide; 20 mM HEPES-KOH pH 7.9, 100 mM potassium acetate, 3.5 mM magnesium acetate, 0.05% CHAPS, 2 mM DTT, 8% glycerol, 0.05 ug/ul BSA, 0.01 mg/ml yeast tRNA, 100 nM RNA library, 25 C, 2 h; settings: protein: recombinant; tags: FLAG
T2 sequence (A1Z9J5 entry or part of it): as above

[4] = biological target: T1, Ago1 (RISC, embryo lysate); experiment: competition; let-7 guide; RBNS: 20 mM HEPES-KOH pH 7.9, 100 mM KOAc, 3.5 mM Mg(OAc)2, 0.05% CHAPS, 2 mM DTT, 8% glycerol, BSA, tRNA, 25 C, 2 h; filter binding: 25 mM HEPES-KOH pH 7.9, 110 mM KOAc, 3.5 mM Mg(OAc)2, 2 mM DTT, 25 C; competition: 18 mM HEPES-KOH pH 7.4, 100 mM KOAc, 3 mM Mg(OAc)2, 5 mM DTT, 25 C; settings: protein: native; g2-21 paired, G:U at g4 and g5
FLAG-Ago1 (RISC) [5] = biological target: T2, FLAG-Ago1 (RISC); experiment: RNA Bind-n-Seq (filter binding, sequencing, MLE); let-7 guide; 20 mM HEPES-KOH pH 7.9, 100 mM potassium acetate, 3.5 mM magnesium acetate, 0.05% CHAPS, 2 mM DTT, 8% glycerol, 0.05 ug/ul BSA, 0.01 mg/ml yeast tRNA, 100 nM RNA library, 25 C, 2 h; settings: protein: recombinant; tags: FLAG; t2-t8 plus t1A

B1: let-7 guide / g2-21 target, G:U at position 4 (dsRNA)
RNA 1: GAUACUAUACAACCUACUACUUCAACCU
RNA 2: UGAGGUAGUAGGUUGUAUAGU
modifications: 2'-O-methyl C and U around a phosphorothioate (CmCpsmU) in target
binding result [1]: binds

B2: let-7 guide / g2-21 complementary target (dsRNA)
RNA 1: GAUACUAUACAACCUACUACCUCAACCU
RNA 2: UGAGGUAGUAGGUUGUAUAGU
modifications: 2'-O-methyl C and U around a phosphorothioate (CmCpsmU) in target
binding result [2]: binds

B3: miR-11 / 6mer-A1 (mixed)
RNA 1: GUGAUA
RNA 2: CAUCACAGUCUGAGUUCUUGC
modifications: guide 5' phosphate
Kd (FLAG-Ago1 (RISC) [3]): 0.404 ± 0.0996 nM

B4: let-7 guide / g2-21 target, G:U at positions 4-5 (dsRNA)
RNA 1: GAUACUAUACAACCUACUAUUUCAACCU
RNA 2: UGAGGUAGUAGGUUGUAUAGU
modifications: 2'-O-methyl C and U around a phosphorothioate (CmCpsmU) in target
binding signal [4]: 120 fold lower affinity

B5: miR-11 / 6mer (mixed)
RNA 1: UGUGAU
RNA 2: CAUCACAGUCUGAGUUCUUGC
modifications: guide 5' phosphate
Kd (FLAG-Ago1 (RISC) [3]): 0.388 ± 0.0906 nM

B6: let-7 / 8mer (mixed)
RNA 1: CUACCUCA
RNA 2: UGAGGUAGUAGGUUGUAUAGU
modifications: guide 5' phosphate
Kd (FLAG-Ago1 (RISC) [5]): 0.005 ± 0.00169 nM
